# B1: 19-nt ssDNA (NTS of 6VPC with five bases mutated at either end) (ssDNA)
# DNA: TTCTCTTCCACTTTCTTTT
# Tests used:
# TadA7.10 [1] = target: T1, TadA7.10 (Escherichia coli? (laboratory-evolved …, UniProt P68398 1-167, W23R;H36L;P48A;R51L;L84F;A106V;D108N;H123Y;S146C;D147Y;R152P;E155V;I156F;K157N)); experiment: SEC; Superdex 200 Increase 10/300 GL, 20 mM HEPES pH7.5, 500 mM KCl; elution position between 44.0 and 29.0 kDa compared with the monomer mass of about 18.7 kDa
# TadA8e (E. coli) = TadA8e (E. coli) (UniProt P68398); experiment: as above
# TadA7.10-3mut = TadA7.10-3mut (Escherichia coli? (laboratory-evolved …, UniProt P68398 1-167, W23R;H36L;P48A;R51L;L84F;A106V;D108N;T111R;D119N;H123Y;S146C;D147Y;R152P;E155V;I …)); experiment: MST; 5 mM Mg2+; MST: 20 mM HEPES pH 7.5, 200 mM KCl, 5 mM MgCl2, 1 mM DTT, 0.05% Tween-20; 100 nM DNA; 120 min at room temperature; settings: protein: recombinant; tags: N-terminal non-cleavable His6; chain copies: 2; label: 5' 6-FAM; single-stranded
# TadA7.10 [2] = target: T1, TadA7.10; experiment: as above; settings: protein: recombinant; tags: N-terminal non-cleavable His6; chain copies: 2; label: 5' 6-FAM; single-stranded
molecule,measurement,setting,value
TadA7.10 (from UniProt P68398 1-167) (enzyme),stoichiometry N,TadA7.10 [1],2
TadA8e (from UniProt P68398 1-167) (enzyme),stoichiometry N,TadA8e (E. coli),2
B1,Kd,TadA7.10-3mut,38.5 nM
same,Kd,TadA7.10 [2],106 nM

# Reference: article PMC11335294, “Directed-evolution mutations enhance DNA-binding affinity and protein stability of the adenine base editor ABE8e”
